Each block holds one molecule with its values, some of them ahead of it.
Tests used:
[1] = molecular target: FLT3 on the cell surface (human leukemia cell lines and patient cells) (human) (UniProt P36888); assay: flow cytometry, biotinylated antibody 10 ug/ml + Streptavidin-PE, SKM-1 cells (AML)
[2] = molecular target: FLT3 on the cell surface (human leukemia cell lines and patient cells) (human) (UniProt P36888); assay: flow cytometry, biotinylated antibody 10 ug/ml + Streptavidin-PE, REH cells (ALL)
[3] = molecular target: FLT3 on the cell surface (human leukemia cell lines and patient cells) (human) (UniProt P36888); assay: flow cytometry, biotinylated antibody 10 ug/ml + Streptavidin-PE, MOLM-13 cells (AML)
[4] = molecular target: FLT3 on the cell surface (human leukemia cell lines and patient cells) (human) (UniProt P36888); assay: flow cytometry, biotinylated antibody 10 ug/ml + Streptavidin-PE, PL-21 cells (AML)
[5] = molecular target: FLT3 on the cell surface (human leukemia cell lines and patient cells) (human) (UniProt P36888); assay: flow cytometry, biotinylated antibody 10 ug/ml + Streptavidin-PE, OCI-AML2 cells (AML)
[6] = molecular target: FLT3 on the cell surface (human leukemia cell lines and patient cells) (human) (UniProt P36888); assay: flow cytometry, biotinylated antibody 10 ug/ml + Streptavidin-PE, NALM-1 cells (CML)
[7] = molecular target: FLT3 on the cell surface (human leukemia cell lines and patient cells) (human) (UniProt P36888); assay: flow cytometry, biotinylated antibody 10 ug/ml + Streptavidin-PE, THP-1 cells (AML)
[8] = molecular target: FLT3 on the cell surface (human leukemia cell lines and patient cells) (human) (UniProt P36888); assay: flow cytometry, biotinylated antibody 10 ug/ml + Streptavidin-PE, SEM cells (B-ALL)
[9] = molecular target: FLT3 on the cell surface (human leukemia cell lines and patient cells) (human) (UniProt P36888); assay: flow cytometry, biotinylated antibody 10 ug/ml + Streptavidin-PE, MONOMAC-1 cells (AML)
[10] = molecular target: FLT3 on the cell surface (human leukemia cell lines and patient cells) (human) (UniProt P36888); assay: flow cytometry, biotinylated antibody 10 ug/ml + Streptavidin-PE, MV-4-11 cells (AML)
[11] = molecular target: FLT3 on the cell surface (human leukemia cell lines and patient cells) (human) (UniProt P36888); assay: flow cytometry, biotinylated antibody 10 ug/ml + Streptavidin-PE, RS4;11 cells (B-ALL)
[12] = molecular target: FLT3 on the cell surface (human leukemia cell lines and patient cells) (human) (UniProt P36888); assay: flow cytometry, biotinylated antibody 10 ug/ml + Streptavidin-PE, EOL-1 cells (AML)
[13] = molecular target: T1, FLT3 on the cell surface (human leukemia cell lines and patient cells) (human, UniProt P36888 27-993); assay: flow cytometry, biotinylated antibody 10 ug/ml + Streptavidin-PE, SKM-1 cells (AML)
T1 construct: Endogenous or recombinant FLT3 on cells; also called Fms like tyrosine kinase 3 receptor; Flk2
T1 sequence (P36888 27-993 T227M limits assumed): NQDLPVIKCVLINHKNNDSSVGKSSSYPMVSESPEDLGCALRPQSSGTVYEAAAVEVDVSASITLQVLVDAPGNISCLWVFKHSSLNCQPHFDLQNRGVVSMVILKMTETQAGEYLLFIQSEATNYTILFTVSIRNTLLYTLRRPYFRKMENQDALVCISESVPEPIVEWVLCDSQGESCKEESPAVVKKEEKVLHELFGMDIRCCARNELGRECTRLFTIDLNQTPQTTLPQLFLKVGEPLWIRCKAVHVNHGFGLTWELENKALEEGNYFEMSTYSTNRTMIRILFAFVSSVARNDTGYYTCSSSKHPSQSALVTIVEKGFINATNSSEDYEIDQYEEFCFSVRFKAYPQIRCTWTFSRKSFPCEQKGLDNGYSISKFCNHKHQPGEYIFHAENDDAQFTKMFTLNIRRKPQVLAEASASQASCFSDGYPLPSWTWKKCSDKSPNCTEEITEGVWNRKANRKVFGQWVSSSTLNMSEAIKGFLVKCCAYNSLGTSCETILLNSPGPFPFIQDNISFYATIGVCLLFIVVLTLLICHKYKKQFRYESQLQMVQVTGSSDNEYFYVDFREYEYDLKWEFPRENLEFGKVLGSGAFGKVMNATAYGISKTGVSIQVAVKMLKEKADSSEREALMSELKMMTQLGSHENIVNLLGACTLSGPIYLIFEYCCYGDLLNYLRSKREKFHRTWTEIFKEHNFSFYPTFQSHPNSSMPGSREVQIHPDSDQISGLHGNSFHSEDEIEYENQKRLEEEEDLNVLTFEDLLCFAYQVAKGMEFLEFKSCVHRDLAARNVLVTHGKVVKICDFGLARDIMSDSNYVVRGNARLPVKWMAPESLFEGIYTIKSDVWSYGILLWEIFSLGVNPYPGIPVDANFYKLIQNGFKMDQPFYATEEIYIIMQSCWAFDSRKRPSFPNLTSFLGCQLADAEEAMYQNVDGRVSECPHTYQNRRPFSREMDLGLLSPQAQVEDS
Experimental: (§1) CHv62.21 was tested for binding to AML and B-ALL cell lines grown in vitro. (See, Table VII). Briefly, CHv62.21 and an isotype matched control antibody were biotinylated using NHS LC biotin. In vitro, exponentially grown cancer cell lines were used for all experiments. Cells were harvested by and washed by centrifugation. Cells were Fc blocked to reduce non-specific binding. Antibodies were diluted to 10 ug/ml final concentration and co-incubated with cells at 4° C. for 1 hour. At the end of the incubation, cells were washed and incubated with secondary detection Streptavidin-PE antibody at a final 1:200 (2.5 ug/ml) dilution for 1 hour at 4° C. After washing un-bound secondary antibody, cells were analyzed by FACS and geometric mean fluorescence was determined and reported. Fluorescence ratio was calculated as follows: Geo mean cHv62.21/Geo mean isotype control=MFR, a measure of fold expression above isotype control.

[14] = molecular target: T1, FLT3 on the cell surface (human …); assay: flow cytometry, biotinylated antibody 10 ug/ml + Streptavidin-PE, SEM cells (B-ALL)
Experimental: as §1

[15] = molecular target: T1, FLT3 on the cell surface (human …); assay: flow cytometry, biotinylated antibody 10 ug/ml + Streptavidin-PE, REH cells (ALL)
Experimental: as §1

[16] = molecular target: T1, FLT3 on the cell surface (human …); assay: flow cytometry, biotinylated antibody 10 ug/ml + Streptavidin-PE, THP-1 cells (AML)
Experimental: as §1

[17] = molecular target: T1, FLT3 on the cell surface (human …); assay: flow cytometry, biotinylated antibody 10 ug/ml + Streptavidin-PE, OCI-AML2 cells (AML)
Experimental: as §1

[18] = molecular target: T1, FLT3 on the cell surface (human …); assay: flow cytometry, biotinylated antibody 10 ug/ml + Streptavidin-PE, MOLM-13 cells (AML)
Experimental: as §1

[19] = molecular target: T1, FLT3 on the cell surface (human …); assay: flow cytometry, biotinylated antibody 10 ug/ml + Streptavidin-PE, PL-21 cells (AML)
Experimental: as §1

[20] = molecular target: T1, FLT3 on the cell surface (human …); assay: flow cytometry, biotinylated antibody 10 ug/ml + Streptavidin-PE, MV-4-11 cells (AML)
Experimental: as §1

[21] = molecular target: T1, FLT3 on the cell surface (human …); assay: flow cytometry, biotinylated antibody 10 ug/ml + Streptavidin-PE, NALM-1 cells (CML)
Experimental: as §1

[22] = molecular target: T1, FLT3 on the cell surface (human …); assay: flow cytometry, biotinylated antibody 10 ug/ml + Streptavidin-PE, RS4;11 cells (B-ALL)
Experimental: as §1

[23] = molecular target: T1, FLT3 on the cell surface (human …); assay: flow cytometry, biotinylated antibody 10 ug/ml + Streptavidin-PE, EOL-1 cells (AML)
Experimental: as §1

[24] = molecular target: T1, FLT3 on the cell surface (human …); assay: flow cytometry, biotinylated antibody 10 ug/ml + Streptavidin-PE, MONOMAC-1 cells (AML)
Experimental: as §1

FLT3 on the cell surface (human leukemia cell lines and patient cells) (human), sequence (P36888 27-993 T227M limits assumed): as above

- Geometric Mean fluorescence [1]: 445
- Geometric Mean fluorescence [2]: 235
- Geometric Mean fluorescence [3]: 320
- Geometric Mean fluorescence [4]: 570
- Geometric Mean fluorescence [5]: 329
- Geometric Mean fluorescence [6]: 262
- Geometric Mean fluorescence [7]: 474
- Geometric Mean fluorescence [8]: 212
- Geometric Mean fluorescence [9]: 338
- Geometric Mean fluorescence [10]: 366
- Geometric Mean fluorescence [11]: 213
- Geometric Mean fluorescence [12]: 281
Molecule: isotype matched control antibody (Table VI)

- MFR (Geo mean cHv62.21/Geo mean isotype control) [13]: 7 fold
- MFR (Geo mean cHv62.21/Geo mean isotype control) [14]: 623 fold
- MFR (Geo mean cHv62.21/Geo mean isotype control) [15]: 69 fold
- MFR (Geo mean cHv62.21/Geo mean isotype control) [16]: 42 fold
- MFR (Geo mean cHv62.21/Geo mean isotype control) [17]: 17 fold
- MFR (Geo mean cHv62.21/Geo mean isotype control) [18]: 44 fold
- MFR (Geo mean cHv62.21/Geo mean isotype control) [19]: 7 fold
- MFR (Geo mean cHv62.21/Geo mean isotype control) [20]: 8 fold
- MFR (Geo mean cHv62.21/Geo mean isotype control) [21]: 49 fold
- MFR (Geo mean cHv62.21/Geo mean isotype control) [22]: 86 fold
- MFR (Geo mean cHv62.21/Geo mean isotype control) [23]: 50 fold
- MFR (Geo mean cHv62.21/Geo mean isotype control) [24]: 34 fold
B1: CHv62.21 MAb (antibody, human IgG1, kappa, V domains shown)
VH: EVQLVESGGGLVRPGGSLRLSCAASGFTFSGYSINWVRQAPGKGLEWVSSISSSSNYIYYADSVKGRFTISRDNAKNSLYLQMNSLRAEDTAVYYCAREGFIAGTTFDAFDIWGQGTMVTVSS
VL: DIQMTQSPSSLSASVGDRVTITCRASQGIRNDLGWYQQKPGKAPKRLIYAASSLQSGVPSRFSGSGSGTEFTLTISSLQPEDFATYYCLQHNGFPYTFGQGTKLEIKR
notes: also called cHv62-1b21.1

Source: patent publication US20180037657A1 (AGENSYS, published 2018)
